Measurements reported in PMC314469, “Protein Interaction Networks by Proteome Peptide Scanning” (PLoS Biology, 2004).

B1: YER006W 41-54 (peptide)
chain: RSRSKKDPGIPSNF
B2: YML127W 362-375 (peptide)
chain: RLIKRLKPPAPKEP
B3: YPL269W 616-629 (peptide)
chain: RRRTRLRPPTPLSQ
B4: YGL143C 139-152 (peptide)
chain: RLVNKLLPPHPFAD
B5: YCR022C 77-90 (peptide)
chain: RLLFRSLPPHPASL
B6: YNL165W 14-27 (peptide)
chain: RRHNRQHPPYPHSG
B7: YOR127W 138-151 (peptide)
chain: RRLKKNLPSLPTPV
B8: YLR072W 370-383 (peptide)
chain: RPVYRLKPNAPFQY
B9: YML050W 46-59 (peptide)
chain: RLPSKTDPLDPHIK
B10: YOR004W 127-140 (peptide)
chain: RRKLRTVPGVPLIH
B11: YOR090C 334-347 (peptide)
chain: RRIRKEHPGEPNVI
B12: YOR347C 411-424 (peptide)
chain: RLLSKYRPSSPIIL
B13: YAL038W 409-422 (peptide)
chain: RLVSKYRPNSPIIL
B14: YGR056W 183-196 (peptide)
chain: RMQQKNSPAFPTHS

Molecular target: T1, Boi1 SH3 (BOI1_YEAST), P38041
T1 chain: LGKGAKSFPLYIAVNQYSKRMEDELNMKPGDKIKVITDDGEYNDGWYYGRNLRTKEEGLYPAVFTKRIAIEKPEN
Experiment: SPOT array

Binder | normalised SPOT signal, Boehringer light units (BLU); mean over the file's lines of this peptide
B1 | 585
B2 | 375
B3 | 137
B4 | 440
B5 | 465
B6 | 299
B7 | 1760
B8 | 72
B9 | 326
B10 | 89
B11 | 920
B12 | 718
B13 | 246
B14 | 4830

Molecular target: T2, Boi2 SH3 (BOI2_YEAST), P39969
T2 chain: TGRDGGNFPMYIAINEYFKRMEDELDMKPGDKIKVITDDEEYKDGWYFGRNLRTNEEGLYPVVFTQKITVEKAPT
Experiment: SPOT array

Binder | normalised SPOT signal, Boehringer light units (BLU); mean over the file's lines of this peptide
B1 | 6.9
B2 | 40.3
B3 | 41.1
B4 | 28.5
B5 | 67.2
B6 | 16
B7 | 41.1
B8 | 78.2
B9 | 28
B10 | 20.1
B11 | 9
B12 | 50.1
B13 | 74
B14 | 227

Molecular target: T3, Myo5 SH3 (MYO5_YEAST), Q04439
T3 chain: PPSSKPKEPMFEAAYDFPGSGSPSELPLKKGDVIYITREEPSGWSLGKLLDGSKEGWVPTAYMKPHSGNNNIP
Experiment: SPOT array

Binder | normalised SPOT signal, Boehringer light units (BLU); mean over the file's lines of this peptide
B1 | 800
B2 | 403
B3 | 1510
B4 | 289
B5 | 746
B6 | 1290
B7 | 824
B8 | 210
B9 | 129
B10 | 2010
B11 | 308
B12 | 337
B13 | 286
B14 | 1280

Molecular target: T4, Rvs167 SH3 (RV167_YEAST), P39743
T4 chain: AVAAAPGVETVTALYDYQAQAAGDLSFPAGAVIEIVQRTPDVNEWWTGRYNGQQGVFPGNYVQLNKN
Experiment: SPOT array

Binder | normalised SPOT signal, Boehringer light units (BLU); mean over the file's lines of this peptide
B1 | 159
B2 | 133
B3 | 423
B4 | 144
B5 | 587
B6 | 51.8
B7 | 280
B8 | 148
B9 | 110
B10 | 6330
B11 | 106
B12 | 1120
B13 | 233
B14 | 1150

molecular target: Sho1 SH3 (SHO1_YEAST), P40073; experiment: SPOT array
Sequence (P40073 295-366): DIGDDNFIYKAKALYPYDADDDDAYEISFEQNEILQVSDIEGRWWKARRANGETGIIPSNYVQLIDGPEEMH

Binder | normalised SPOT signal, Boehringer light units (BLU); mean over the file's lines of this peptide
B1 | 118
B2 | 166
B3 | 76.1
B4 | 20300
B5 | 571
B6 | 65.3
B7 | 27000
B8 | 60.1
B9 | 47.9
B10 | 85.3
B11 | 123
B12 | 41.8
B13 | 42.5
B14 | 1220

Molecular target: T5, Yfr024 SH3 (LSB3_YEAST), P43603
T5 chain: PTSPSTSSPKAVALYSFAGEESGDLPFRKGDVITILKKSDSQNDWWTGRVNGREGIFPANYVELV
Experiment: SPOT array

Binder | normalised SPOT signal, Boehringer light units (BLU); mean over the file's lines of this peptide
B1 | 360
B2 | 296
B3 | 819
B4 | 187
B5 | 3510
B6 | 667
B7 | 395
B8 | 583
B9 | 66.3
B10 | 2640
B11 | 570
B12 | 519
B13 | 565
B14 | 4550

Molecular target: T6, Yhr016c SH3 (YSC84_YEAST), P32793
T6 chain: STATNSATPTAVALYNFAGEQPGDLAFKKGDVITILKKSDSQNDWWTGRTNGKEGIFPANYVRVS
Experiment: SPOT array

Binder | normalised SPOT signal, Boehringer light units (BLU); mean over the file's lines of this peptide
B1 | 52.3
B2 | 65.9
B3 | 104
B4 | 24.8
B5 | 1600
B6 | 43.4
B7 | 50.6
B8 | 129
B9 | 29.3
B10 | 772
B11 | 60.5
B12 | 245
B13 | 108
B14 | 1510
